Measured values reported in patent WO2016002189A1 (dated 2016).

Assays:
[1] = target: T1, proglucagon (Homo sapiens (Human), UniProt P01275 21-180); assay: epitope assay (chemiluminescent immunoassay)
T1 construct: Native protein in culture supernatants or HPLC fractions of human duodenal cancer cell lines, not purified recombinant protein; also called proglucagon protein

[2] = target: T2, peptide consisting of amino acid residues 111 to 144 of proglucagon; assay: ELISA screening of hybridomas against the proglucagon peptides
T2 construct: Synthetic peptide; also called proglucagon (111-144); proglucagon 111-144 antigen
T2 peptide: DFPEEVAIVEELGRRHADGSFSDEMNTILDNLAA

[3] = target: T3, human glucagon (manufactured by Yanaihara Laboratories) (human, UniProt P01275 53-81); assay: competitive ELISA with biotinylated proglucagon (111-144) as labelled antigen
T3 construct: Glucagon is only the 29-residue hormone cut from it

[4] = target: T4, human GLP-1 (manufactured by Yanaihara Laboratories) (human, UniProt P01275 98-127, limits assumed); assay: as above
T4 construct: also called glucagon-like peptide-1
T4 peptide (looked up): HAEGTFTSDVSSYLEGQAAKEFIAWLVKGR

[5] = target: T5, human GLP-2 (manufactured by Yanaihara Laboratories) (human, UniProt P01275 146-178); assay: as above
T5 construct: also called glucagon-like peptide-2
T5 peptide (looked up): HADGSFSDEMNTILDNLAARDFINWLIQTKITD

T1 sequence (P01275 21-180): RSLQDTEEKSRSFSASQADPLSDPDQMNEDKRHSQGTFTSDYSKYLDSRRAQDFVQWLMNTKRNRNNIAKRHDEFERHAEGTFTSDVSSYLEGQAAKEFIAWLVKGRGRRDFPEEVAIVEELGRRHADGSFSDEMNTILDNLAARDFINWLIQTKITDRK
T3 sequence (P01275 53-81): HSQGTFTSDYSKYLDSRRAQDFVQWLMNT

B1: SCC-MGD-913Ab (antibody, V domains shown)
VH: DVKLVESGGGLVKPGGSLKLSCAASGFTFSSFAMTWVRQTPEKRLEWVATISNGGSYTYYPDSVKGRFTISRDNAKNTLYLQMSSLRSEDTAMYYCTRDGAGKGFPLDYWGQGTTLTVSS
VL: NILLTQSPSSLAVSAGEKVTMSCKSSQSVFYSSNQKNYLAWYQQKPGQSPKLLIYWASTRESGVPDRFTGSGSGTDFTLTISSVQAEDLAIYYCHQYFSSLTFGAGTKLELK
notes: Mouse hybridoma monoclonal from immunisation with the proglucagon 111-144 peptide
binding result [1]: binds
binding result [2]: binds
binding result [3]: no binding
binding result [4]: no binding
binding result [5]: no binding
